# Laboratory results: US20210325403
# T1: caspase-3 substrate CGKRKGDEVDSG
# T1 chain: CGKRKGDEVDSG
# B1: caspase-3 (protein)
# chain: SGISLDNSYKMDYPEMGLCIIINNKNFHKSTGMTSRSGTDVDAANLRETFRNLKYEVRNKNDLTREEIVELMRDVSKEDHSKRSSFVCVLLSHGEEGIIFGTNGPVDLKKITNFFRGDRCRSLTGKPKLFIIQACRGTELDCGIETDSGVDDDMACHKIPVEADFLYAYSTAPGYYSWRNSKDGSWFIQSLCAMLKQYADKLEFMHILTRVNRKVATEFESFSFDATFHAKKQIPCIVSMLTKELYFYH
# Biological target: T1, caspase-3 substrate CGKRKGDEVDSG
protein,measurement,value
B1,"cleavage of the immobilised substrate, read by SAMDI mass spectrometry",we also observed a peak corresponding to the caspase-3 product at 144 Da lower than the initial substrate mass
